# Assay results reported in article PMC3608519 (Journal of immunology (Baltimore, Md. : 1950), 2013).
# Molecular target: RSV fusion (F) protein ectodomain (Human respiratory syncytial virus; …, UniProt P03420)
# Assay: SPR
# Sequence of RSV fusion (F) protein ectodomain (P03420 26-524): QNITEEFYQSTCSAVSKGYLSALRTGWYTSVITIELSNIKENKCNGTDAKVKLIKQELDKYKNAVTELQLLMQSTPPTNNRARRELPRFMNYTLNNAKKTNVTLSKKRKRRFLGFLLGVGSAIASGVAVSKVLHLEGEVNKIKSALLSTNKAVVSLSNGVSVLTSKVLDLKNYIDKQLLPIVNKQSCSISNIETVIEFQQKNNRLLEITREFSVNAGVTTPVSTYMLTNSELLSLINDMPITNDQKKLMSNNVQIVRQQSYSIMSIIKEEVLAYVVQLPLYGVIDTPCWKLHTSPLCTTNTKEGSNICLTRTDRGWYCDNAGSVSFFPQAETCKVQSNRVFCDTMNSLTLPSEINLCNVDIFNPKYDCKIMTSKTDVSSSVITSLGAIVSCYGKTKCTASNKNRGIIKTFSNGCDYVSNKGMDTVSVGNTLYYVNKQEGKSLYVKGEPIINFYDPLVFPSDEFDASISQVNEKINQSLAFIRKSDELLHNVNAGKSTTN
binder,measurement,value
"Fab19 (fully matured, wild-type) (Fab, V domains shown) VH: VQLLEVESGGGLRPGGSLRLSCAASGTTLSGYTMHWVRQAPGKGLEWVSSITGGSNFINYSDSVKGRFTISRDNAKNSLYLQMNSLTAEDTAVYYCATAPIAPPYFDHWGQGTLVTVSS VL: ELTQSPSSLSASVGDRVTITCRATQSVSNFLNWYQQKPGEAPTLLIYDASTSQSGVPSRFSGSGSGMDFSLTISSLQPEDLAMYYCQASINTPLFGGGTRIDMR",koff,0.0057 s⁻¹
